From US20220397533A1

How the values were obtained:
[1] = biological target: biotinylated bovine serum albumin (bovine) (UniProt P02769); assay: SPR angular scanning on Al/Al2O3 film, streptavidin 500 µg/mL in 1xPBS buffer
[2] = biological target: biotinylated bovine serum albumin (bovine) (UniProt P02769); assay: SPR angular scanning on Al/Al2O3 film, streptavidin 500 µg/mL spiked in undiluted human serum, serum-only control subtracted
poly-L-lysine [3] = assay: SPR imaging, PLL-coated Al microarray, chemokines in PBS buffer; difference against CXCL10 as reference
poly-L-lysine [4] = assay: SPR imaging, PLL-coated Al microarray, chemokines spiked in artificial urine matrix; difference against CXCL10 as reference

Sequence of biotinylated bovine serum albumin (bovine) (P02769 25-607 limits assumed, form in doubt): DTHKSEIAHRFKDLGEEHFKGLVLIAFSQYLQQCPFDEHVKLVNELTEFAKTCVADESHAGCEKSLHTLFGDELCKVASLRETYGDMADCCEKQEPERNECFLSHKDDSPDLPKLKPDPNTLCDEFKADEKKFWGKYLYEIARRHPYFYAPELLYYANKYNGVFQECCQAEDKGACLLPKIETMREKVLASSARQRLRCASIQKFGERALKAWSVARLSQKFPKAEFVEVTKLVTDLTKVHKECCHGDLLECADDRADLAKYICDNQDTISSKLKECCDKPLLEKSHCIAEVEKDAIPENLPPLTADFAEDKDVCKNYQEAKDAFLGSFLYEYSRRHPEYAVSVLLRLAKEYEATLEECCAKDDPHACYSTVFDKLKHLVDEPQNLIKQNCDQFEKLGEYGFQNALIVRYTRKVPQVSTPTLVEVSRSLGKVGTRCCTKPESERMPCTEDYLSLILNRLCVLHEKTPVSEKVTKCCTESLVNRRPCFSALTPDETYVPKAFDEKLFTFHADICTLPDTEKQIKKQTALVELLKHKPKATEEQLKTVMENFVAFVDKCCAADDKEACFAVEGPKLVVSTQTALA

| specific binding signal (SPR angular shift) [1] | specific binding signal (SPR angular shift) [2] | relative difference in response between CXCL10 and CXCL8 (kinetic reflectivity shift) (poly-L-lysine [3]) | relative difference in response between CXCL10 and CXCL8 (kinetic reflectivity shift) (poly-L-lysine [4]) | Substance |
| --- | --- | --- | --- | --- |
| 0.21 ° | 0.17 ° |  |  | streptavidin (from UniProt P22629 37-163) |
|  |  | 0.25% | 0.68% | CXCL8 (from UniProt P10145 29-99) (ligand) |
